Series [1] addresses collagenase-3 dual receptor system on UMR 106-01 cells (collagenase-3 receptor and low density lipoprotein receptor-related protein). Description: competition with ^125I mouse collagenase-3 on UMR-106-01 cells; 200-, 400- and 800-fold excess of competitor.
For series [2], the target named is collagenase-3 receptor and low density lipoprotein receptor-related protein on MEF-1 cells. Kind of series: competition with ^125I mouse collagenase-3 on MEF-1 cells; 200-, 400- and 800-fold excess of competitor.
Series [3] concerns the target collagenase-3 receptor (170 kDa protein) of mouse embryo fibroblasts MEF-1 and MEF-2 (mouse) (UniProt Q64449). Description: competition with ^125I mouse collagenase-3 on MEF-2 (LRP null) cells; 200-, 400- and 800-fold excess of competitor.
Series [4] addresses collagenase-3 dual receptor system on UMR 106-01 cells (collagenase-3 receptor and low density lipoprotein receptor-related protein). Description: competition with ^125I mouse collagenase-3 on UMR cells.
Series [5] has as its target low density lipoprotein receptor-related protein of human chondrocytes (UniProt Q07954).
Series [6] shares this target. Kind of series: cell-based or functional assay.
In series [7] the target is rat collagenase-3 receptor (170 kDa protein) of UMR 106-01 rat osteosarcoma cells and other rat cells (rat). Description: ^125I-labeled ligand at 8 nM on UMR cells, triplicate wells.
Series [8] shares this target. Kind of series: ^125I-labeled ligand at 10 nM on UMR cells, triplicate wells.

Sequence of collagenase-3 receptor (170 kDa protein) of mouse embryo fibroblasts MEF-1 and MEF-2 (mouse) (Q64449 31-1479): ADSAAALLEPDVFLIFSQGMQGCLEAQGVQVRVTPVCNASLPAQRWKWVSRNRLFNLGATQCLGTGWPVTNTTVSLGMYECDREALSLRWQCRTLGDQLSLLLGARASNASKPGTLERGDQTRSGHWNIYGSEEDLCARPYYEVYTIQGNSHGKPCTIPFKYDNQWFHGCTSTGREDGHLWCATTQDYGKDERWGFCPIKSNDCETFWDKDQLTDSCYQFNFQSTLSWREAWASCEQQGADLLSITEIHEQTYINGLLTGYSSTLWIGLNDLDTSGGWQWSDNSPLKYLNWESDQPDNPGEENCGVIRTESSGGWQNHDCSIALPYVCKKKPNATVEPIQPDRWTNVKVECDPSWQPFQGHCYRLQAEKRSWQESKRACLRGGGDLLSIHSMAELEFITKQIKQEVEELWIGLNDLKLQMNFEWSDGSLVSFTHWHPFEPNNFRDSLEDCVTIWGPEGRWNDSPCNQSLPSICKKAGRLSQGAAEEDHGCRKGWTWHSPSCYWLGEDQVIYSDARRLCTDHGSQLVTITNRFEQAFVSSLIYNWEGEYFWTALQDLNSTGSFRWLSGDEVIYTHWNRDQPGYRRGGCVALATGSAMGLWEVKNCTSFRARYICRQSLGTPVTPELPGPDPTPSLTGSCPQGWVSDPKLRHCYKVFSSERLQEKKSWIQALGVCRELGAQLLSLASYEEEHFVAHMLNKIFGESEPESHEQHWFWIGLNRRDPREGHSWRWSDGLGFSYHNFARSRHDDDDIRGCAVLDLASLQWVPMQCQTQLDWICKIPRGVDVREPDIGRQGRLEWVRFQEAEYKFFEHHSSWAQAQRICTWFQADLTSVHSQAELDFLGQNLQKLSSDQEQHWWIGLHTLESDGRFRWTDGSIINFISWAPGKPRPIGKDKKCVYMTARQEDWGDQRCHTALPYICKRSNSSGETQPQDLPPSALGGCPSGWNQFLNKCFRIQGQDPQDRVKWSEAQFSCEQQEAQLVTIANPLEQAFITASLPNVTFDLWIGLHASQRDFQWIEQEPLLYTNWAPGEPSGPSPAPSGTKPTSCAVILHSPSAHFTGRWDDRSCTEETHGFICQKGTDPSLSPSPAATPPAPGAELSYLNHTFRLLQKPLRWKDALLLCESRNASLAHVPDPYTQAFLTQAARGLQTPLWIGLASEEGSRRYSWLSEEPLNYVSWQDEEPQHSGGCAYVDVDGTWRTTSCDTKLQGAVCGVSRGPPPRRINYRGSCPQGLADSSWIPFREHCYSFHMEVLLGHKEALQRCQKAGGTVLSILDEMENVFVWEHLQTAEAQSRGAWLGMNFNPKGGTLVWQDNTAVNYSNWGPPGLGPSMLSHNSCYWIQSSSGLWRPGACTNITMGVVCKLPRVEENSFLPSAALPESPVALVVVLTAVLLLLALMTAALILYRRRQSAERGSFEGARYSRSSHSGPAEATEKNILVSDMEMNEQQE
Sequence of rat collagenase-3 receptor (170 kDa protein) of UMR 106-01 rat osteosarcoma cells and other rat cells (rat) (Q4TU93 31-1480): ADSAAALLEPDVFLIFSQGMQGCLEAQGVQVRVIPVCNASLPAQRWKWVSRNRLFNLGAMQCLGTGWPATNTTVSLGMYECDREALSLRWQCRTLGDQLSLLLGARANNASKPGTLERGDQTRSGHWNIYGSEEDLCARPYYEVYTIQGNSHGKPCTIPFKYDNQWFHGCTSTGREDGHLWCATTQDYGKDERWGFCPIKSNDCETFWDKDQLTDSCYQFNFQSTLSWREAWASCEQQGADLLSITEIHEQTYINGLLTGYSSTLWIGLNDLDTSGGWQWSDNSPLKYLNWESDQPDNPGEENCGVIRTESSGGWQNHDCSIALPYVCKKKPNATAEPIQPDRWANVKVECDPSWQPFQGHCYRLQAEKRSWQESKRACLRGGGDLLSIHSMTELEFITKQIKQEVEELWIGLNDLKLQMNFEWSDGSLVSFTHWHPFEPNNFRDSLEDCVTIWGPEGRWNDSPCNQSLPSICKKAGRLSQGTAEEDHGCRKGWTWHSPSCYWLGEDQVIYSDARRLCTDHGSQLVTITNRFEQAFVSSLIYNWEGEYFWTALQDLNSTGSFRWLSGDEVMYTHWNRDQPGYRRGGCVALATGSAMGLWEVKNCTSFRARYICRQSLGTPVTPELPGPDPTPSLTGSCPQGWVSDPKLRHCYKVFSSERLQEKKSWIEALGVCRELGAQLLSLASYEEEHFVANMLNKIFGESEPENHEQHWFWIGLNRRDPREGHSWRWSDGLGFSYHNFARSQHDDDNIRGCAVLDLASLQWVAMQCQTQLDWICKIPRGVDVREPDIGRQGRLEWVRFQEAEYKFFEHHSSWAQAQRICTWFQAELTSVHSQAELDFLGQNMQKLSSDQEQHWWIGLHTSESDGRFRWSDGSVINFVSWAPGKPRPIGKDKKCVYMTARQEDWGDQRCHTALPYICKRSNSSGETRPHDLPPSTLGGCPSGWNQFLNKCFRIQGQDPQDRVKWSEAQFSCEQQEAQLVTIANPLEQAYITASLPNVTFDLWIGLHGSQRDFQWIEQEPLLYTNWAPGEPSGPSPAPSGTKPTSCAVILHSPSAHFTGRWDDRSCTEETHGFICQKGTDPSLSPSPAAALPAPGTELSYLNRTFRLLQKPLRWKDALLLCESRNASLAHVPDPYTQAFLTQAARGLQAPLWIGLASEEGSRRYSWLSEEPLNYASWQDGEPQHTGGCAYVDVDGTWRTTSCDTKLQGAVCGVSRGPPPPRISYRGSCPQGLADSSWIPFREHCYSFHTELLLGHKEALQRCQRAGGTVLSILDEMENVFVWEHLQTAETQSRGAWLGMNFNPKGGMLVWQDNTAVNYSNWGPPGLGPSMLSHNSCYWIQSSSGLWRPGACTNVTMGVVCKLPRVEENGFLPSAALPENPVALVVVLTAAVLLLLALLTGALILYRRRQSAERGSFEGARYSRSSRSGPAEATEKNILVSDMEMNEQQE
Sequence of human fibroblast collagenase-1 (MMP-1) (P03956 100-469): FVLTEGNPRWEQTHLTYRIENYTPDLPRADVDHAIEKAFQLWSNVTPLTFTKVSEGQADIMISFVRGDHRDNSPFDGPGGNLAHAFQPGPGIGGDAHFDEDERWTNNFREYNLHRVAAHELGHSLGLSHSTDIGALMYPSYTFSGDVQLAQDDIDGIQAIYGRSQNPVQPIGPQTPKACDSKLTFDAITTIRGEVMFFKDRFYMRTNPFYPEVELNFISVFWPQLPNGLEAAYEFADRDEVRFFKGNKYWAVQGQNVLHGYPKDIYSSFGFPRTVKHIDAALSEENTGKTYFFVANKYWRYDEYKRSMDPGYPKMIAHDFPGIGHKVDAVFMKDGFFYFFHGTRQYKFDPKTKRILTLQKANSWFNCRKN
Sequence of human 72 kDa gelatinase (MMP-2) (P08253 30-660 limits assumed): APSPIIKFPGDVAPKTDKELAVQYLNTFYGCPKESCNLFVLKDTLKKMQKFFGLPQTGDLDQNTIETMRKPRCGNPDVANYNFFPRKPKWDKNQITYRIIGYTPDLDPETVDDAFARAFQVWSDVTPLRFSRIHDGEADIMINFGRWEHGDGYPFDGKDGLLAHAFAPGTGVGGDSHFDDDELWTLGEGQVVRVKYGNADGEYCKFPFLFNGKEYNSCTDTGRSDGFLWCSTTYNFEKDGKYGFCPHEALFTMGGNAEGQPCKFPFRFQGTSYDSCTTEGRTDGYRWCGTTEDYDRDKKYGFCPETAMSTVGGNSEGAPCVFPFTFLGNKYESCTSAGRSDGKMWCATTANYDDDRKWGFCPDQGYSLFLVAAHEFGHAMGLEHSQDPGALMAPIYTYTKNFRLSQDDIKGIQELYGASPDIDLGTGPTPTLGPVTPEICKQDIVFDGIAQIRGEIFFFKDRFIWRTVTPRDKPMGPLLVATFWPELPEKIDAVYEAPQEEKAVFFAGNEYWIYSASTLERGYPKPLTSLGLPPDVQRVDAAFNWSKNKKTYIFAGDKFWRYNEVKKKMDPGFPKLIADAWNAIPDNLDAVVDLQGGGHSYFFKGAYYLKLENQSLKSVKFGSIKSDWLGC
Sequence of human 92 kDa gelatinase (MMP-9) (P14780 20-707 limits assumed): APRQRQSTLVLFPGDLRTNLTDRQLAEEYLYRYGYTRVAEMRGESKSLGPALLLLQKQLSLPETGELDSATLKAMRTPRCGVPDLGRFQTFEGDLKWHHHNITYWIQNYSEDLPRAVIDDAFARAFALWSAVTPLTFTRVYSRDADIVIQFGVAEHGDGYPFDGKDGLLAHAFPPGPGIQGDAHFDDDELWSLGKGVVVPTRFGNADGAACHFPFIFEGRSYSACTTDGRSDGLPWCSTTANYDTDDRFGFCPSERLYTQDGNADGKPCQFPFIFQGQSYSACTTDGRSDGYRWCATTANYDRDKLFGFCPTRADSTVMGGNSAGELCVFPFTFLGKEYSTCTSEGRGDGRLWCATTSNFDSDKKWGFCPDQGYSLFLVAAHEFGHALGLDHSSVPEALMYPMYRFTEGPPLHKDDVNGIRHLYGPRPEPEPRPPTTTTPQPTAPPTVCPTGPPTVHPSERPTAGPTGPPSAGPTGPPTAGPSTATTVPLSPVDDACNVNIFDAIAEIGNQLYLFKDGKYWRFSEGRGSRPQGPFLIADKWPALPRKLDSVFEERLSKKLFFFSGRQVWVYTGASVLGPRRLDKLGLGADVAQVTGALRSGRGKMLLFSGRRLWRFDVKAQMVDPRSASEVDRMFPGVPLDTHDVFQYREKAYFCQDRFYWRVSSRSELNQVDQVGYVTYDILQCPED

Take “C-terminally truncated mouse collagenase-3, M(1-265) (from UniProt P33435 20-265) (enzyme)”: the percent of mouse collagenase-3 binding in series [1] and in series [2] was 100% throughout.
For “H/M(229-472) chimeric collagenase (from UniProt P03956 20-223; P33435 229-472) (enzyme)”, the percent of mouse collagenase-3 binding in series [1] came to 16.5%; in series [2] it was 2.2%.
For the substance “HM(141-228)/H chimeric collagenase (from UniProt P03956 20-135; P33435 141-228; P03956 224-408) (enzyme)”, the percent of mouse collagenase-3 binding in series [3] is 75.1%; in series [1] it was 89.9%; in series [2], 94.3%.
For “HM(166-228)/H chimeric collagenase (from UniProt P03956 20-160; P33435 166-228; P03956 224-408) (enzyme)” the same measures were 97.2%, 67.8% and 80.8%.
Take “HM/M(141-472) chimeric collagenase (from UniProt P03956 20-135; P33435 141-472) (enzyme)”: the results for the percent of mouse collagenase-3 binding in series [1] and in series [2] were 95.7% and 84.4%, respectively.
In series [4], “M(1-228)/H chimeric collagenase (from UniProt P33435 20-228; P03956 224-408) (enzyme)” returned a competition efficiency compared to full-length collagenase-3 of over 90%. Further, the percent of mouse collagenase-3 binding in series [3] was found to be 41.9%; in series [1], 85.3%; in series [2], 85.9%.
Turning to “MH(213-267)/M chimeric collagenase (exon 5 replacement) (from UniProt P33435 20-212; P03956 213-267; P33435 268-472) (enzyme)”, the percent of mouse collagenase-3 binding in series [3] is 98.7%; in series [1], 95.5%; in series [2] it was 99.1%.
With ^125I collagenase-3 of Example 3, the “reduction of collagenase-3 internalization by RAP in osteoarthritis chondrocytes” value in series [5] was “by 74.3%”.
For the substance “^125I collagenase-3 of Example 3 (enzyme)”, in series [6], the inhibition of collagenase-3 internalization by receptor-associated protein in control human chondrocytes was 88.2%.
For the substance “human 72 kDa gelatinase (MMP-2) (from UniProt P08253 30-660) (enzyme)”, the Specific binding (fmol/2.6 × 10^5 cells) in series [7] is 0.
Turning to “human 92 kDa gelatinase (MMP-9) (from UniProt P14780 20-707) (enzyme)”, in series [8], the Specific binding (fmol/2.6 × 10^5 cells) stood at 3.9.
Substance “human fibroblast collagenase-1 (MMP-1) (from UniProt P03956 100-469) (enzyme)” gave a Specific binding (fmol/2.6 × 10^5 cells) in series [7] of 0.1. In series [1], this substance gave a percent of mouse collagenase-3 binding of 0%.
In the case of “human stromelysin-1 (MMP-3) (from UniProt P08254 18-477) (enzyme)”, the Specific binding (fmol/2.6 × 10^5 cells) in series [7] was 0.
On to “recombinant mouse collagenase-3 (mMMP-13, residues 1-472) (from UniProt P33435 20-472) (enzyme)”, for which the percent of mouse collagenase-3 binding in series [1] and in series [2] was 100% throughout.

For the origin of these results see patent US6403637.
